# Reference: patent US20110118131A1 (published 2011)
# Numbering of substitutions follows the chain as printed. Names may count otherwise.
# B1: XPA23 light chain R31T (Fab, V domains shown)
# VH: EVQLLESGGGLVQPGGSLRLSCAASGFTFSKYFMFWVRQAPGKGLEWVSVISPSGGMTRYADSVKGRFTISRDNSKNTLYLQMNSLRAEDTAVYYCARVGYGGNSDYWGQGTLVTVSS
# VL: DIQMTQSPSSVSASVGDRLTIICRASQDINTWLAWYQQTPGNAPKLLIHSATSLQSGVPSRFSGSGSGTDFTLTINSLQPEDFATYYCQQADSFPLTFGGGTKVEIK
# B2: XPA23 light chain S53F (Fab, V domains shown)
# VH: B1 VH
# VL: B1 VL with T31R, S53F
# B3: XPA23 light chain S50R (Fab, V domains shown)
# VH: B1 VH
# VL: B1 VL with T31R, S50R
# B4: XPA23 light chain S50D (Fab, V domains shown)
# VH: B1 VH
# VL: B1 VL with T31R, S50D
# B5: XPA23 light chain R31Y (Fab, V domains shown)
# VH: B1 VH
# VL: B1 VL with T31Y
# B6: XPA23 light chain S50V (Fab, V domains shown)
# VH: B1 VH
# VL: B1 VL with T31R, S50V
# B7: XPA23 light chain S50W (Fab, V domains shown)
# VH: B1 VH
# VL: B1 VL with T31R, S50W
# B8: XPA23 light chain S50Q (Fab, V domains shown)
# VH: B1 VH
# VL: B1 VL with T31R, S50Q
# B9: XPA23 light chain S53D (Fab, V domains shown)
# VH: B1 VH
# VL: B1 VL with T31R, S53D
# B10: XPA23 light chain S53R (Fab, V domains shown)
# VH: B1 VH
# VL: B1 VL with T31R, S53R
# B11: XPA23 light chain R31V (Fab, V domains shown)
# VH: B1 VH
# VL: B1 VL with T31V
# B12: XPA23 light chain S50T (Fab, V domains shown)
# VH: B1 VH
# VL: B1 VL with T31R, S50T
# B13: XPA23 light chain R31W (Fab, V domains shown)
# VH: B1 VH
# VL: B1 VL with T31W
# B14: XPA23 light chain S50L (Fab, V domains shown)
# VH: B1 VH
# VL: B1 VL with T31R, S50L
# B15: XPA23 light chain S53W (Fab, V domains shown)
# VH: B1 VH
# VL: B1 VL with T31R, S53W
# B16: XPA23 light chain S50K (Fab, V domains shown)
# VH: B1 VH
# VL: B1 VL with T31R, S50K
# B17: XPA23 light chain S50A (Fab, V domains shown)
# VH: B1 VH
# VL: B1 VL with T31R, S50A
# B18: XPA23 light chain S50E (Fab, V domains shown)
# VH: B1 VH
# VL: B1 VL with T31R, S50E
# B19: XPA23 light chain S50N (Fab, V domains shown)
# VH: B1 VH
# VL: B1 VL with T31R, S50N
# B20: XPA23 light chain S50Y (Fab, V domains shown)
# VH: B1 VH
# VL: B1 VL with T31R, S50Y
# B21: XPA23 light chain S50P (Fab, V domains shown)
# VH: B1 VH
# VL: B1 VL with T31R, S50P
# B22: XPA23 light chain S50H (Fab, V domains shown)
# VH: B1 VH
# VL: B1 VL with T31R, S50H
# B23: XPA23 light chain S53Q (Fab, V domains shown)
# VH: B1 VH
# VL: B1 VL with T31R, S53Q
# B24: XPA23 light chain S53Y (Fab, V domains shown)
# VH: B1 VH
# VL: B1 VL with T31R, S53Y
# B25: XPA23 light chain S50I (Fab, V domains shown)
# VH: B1 VH
# VL: B1 VL with T31R, S50I
# B26: XPA23 light chain S53E (Fab, V domains shown)
# VH: B1 VH
# VL: B1 VL with T31R, S53E
# B27: XPA23 light chain S53K (Fab, V domains shown)
# VH: B1 VH
# VL: B1 VL with T31R, S53K
# B28: XPA23 light chain S53N (Fab, V domains shown)
# VH: B1 VH
# VL: B1 VL with T31R, S53N
# B29: XPA23 light chain S50F (Fab, V domains shown)
# VH: B1 VH
# VL: B1 VL with T31R, S50F
# B30: XPA23 light chain S50G (Fab, V domains shown)
# VH: B1 VH
# VL: B1 VL with T31R, S50G
# Biological target: T1, IL-1β (UniProt P01584 117-269)
# T1 construct: Antigen immobilised on the Biacore chip
# Assay: Biacore, periplasmic extract
Binder,fold difference in affinity vs original [fold],binding result
B1,0.24,–
B2,1.24,–
B3,–,no binding
B4,–,no binding
B5,–,no binding
B6,0.21,–
B7,0.02,–
B8,0.21,–
B9,–,no binding
B10,3.29,–
B11,0.44,–
B12,0.87,–
B13,0.43,–
B14,0.49,–
B15,1.11,–
B16,0.1,–
B17,0.13,–
B18,0.02,–
B19,0.25,–
B20,0.05,–
B21,–,no binding
B22,0.05,–
B23,1.09,–
B24,1.23,–
B25,0.25,–
B26,1.13,–
B27,4.07,–
B28,1.23,–
B29,–,no binding
B30,0.14,–
